In US10591471B2, “Suppression of SPLA2-integrin binding for treating an inflammatory condition or suppressing cell proliferation” (THE REGENTS OF THE UNIVERSITY OF CALIFORNIA, priority 2015, dated 2020):
Positions count from the first letter of the chain named. In names and notes the source's numbering stands. Where no end group is shown, it is not given here.

Key:
[1] = tested on: other ligands (e.g., SDF-1, IGF-1); assay: Additional testing: binding of linear and cyclic site 2 peptides to other ligands
Excerpt: Data are shown in FIG. 12 comparing cyclic site 2 peptides (β1 and β3) binding to sPLA2-IIA or FKN.

[2] = biological target: T1, sPLA2-IIA catalytic activity (Homo sapiens, UniProt P14555); settings: clinical trials; cited from earlier work
T1 sequence (P14555 21-144): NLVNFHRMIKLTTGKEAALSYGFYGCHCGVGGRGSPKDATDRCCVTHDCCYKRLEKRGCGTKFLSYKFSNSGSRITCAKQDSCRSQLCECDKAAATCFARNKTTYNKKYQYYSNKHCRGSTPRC

[3] = biological target: T2, sPLA2-IIA (Homo sapiens, UniProt P14555); assay: ELISA-type binding of S2 peptides to immobilized sPLA2-IIA; settings: GST-tagged peptides; sPLA2-IIA 20 μg/ml coating
T2 construct: made in house
T2 sequence (P14555 21-144): T1 sequence (P14555 21-144)
Method: ELISA-type binding assays were performed as described previously (18). Briefly, wells of 96-well Immulon 2 microtiter plates (Dynatech Laboratories, Chantilly, Va.) were coated with 100 μl 0.1 M NaHCO3 containing sPLA2-IIA, γC399tr, FN-H120 for 2 h at 37° C. Remaining protein binding sites were blocked by incubating with PBS/0.1% BSA for 30 min at room temperature. After washing with PBS, S2 peptides were added to the wells and incubated in PBS for 2 h at room temperature. After unbound S2 peptides were removed by rinsing the wells with PBS, bound S2 peptides (GST-tagged) were measured using HRP-conjugated anti-GST antibody and peroxidase substrates.

[4] = tested on: integrin activation by FKN-CD; settings: cited from earlier work
[5] = tested on: U937 cells; assay: sPLA2-IIA-induced chemotaxis in modified Boyden chambers; assay type: cell-based, human; settings: 1 μg/ml sPLA2-IIA, 20 μg/ml peptide, 5 h
Method: FIG. 11. S2-β1 peptide suppresses sPLA2-IIA-induced chemotaxis. Chemotaxis was measured in modified Boyden chambers. 1 μg/ml sPLA2-IIA and 20 μg/ml S2-β1 peptide or control peptides in 600 μl RPMI 1640 medium were placed in lower chamber, and U937 cells (2×10^5 cells in 100 μl RPMI 1640 medium) were placed in the upper chamber. After 5 hours of incubation at 37° C., cells in the lower chamber was counted.
Chemotaxis was measured in modified Boyden Chambers (Transwell). One μg/ml sPLA2-IIA and 20 μg/ml S2-β1 peptide or control peptides in 600 μl RPMI 1640 medium were placed in the lower chamber, and U937 cells (2×10^5 cells in 100 μl RPMI1640 medium) were placed in the upper chamber. After 5 h incubation at 37° C., cells in the lower chamber were counted.

[6] = biological target: T3, FKN-CD (Homo sapiens, UniProt P78423); settings: cited from earlier work
T3 sequence (P78423 25-100 limits assumed): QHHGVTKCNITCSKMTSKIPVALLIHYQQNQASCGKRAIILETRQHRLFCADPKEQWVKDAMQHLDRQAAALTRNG

[7] = biological target: T4, integrin αvβ3 on U937, αvβ3-K562 and β3-CHO cells (Homo sapiens, UniProt P05106+P06756); assay: Flow cytometry: binding of FITC-labeled ADAM15 disintegrin domain to αvβ3; assay type: cell-based; settings: sPLA2-IIA 20 μg/ml
T4 construct: expressed in transfected cells; host or cells: U937 (endogenous αvβ3); αvβ3-K562 (transfected human αvβ3); β3-CHO (human β3 with hamster αv)
Method: (§1) The cells were cultured to nearly confluent in RPMI 1640/10% FCS (K562 and U937) or DMEM/10% FCS (CHO cells). The cells were resuspended with RPMI 1640/0.02% BSA or DMEM/0.02% BSA and incubated for 30 min at room temperature to block remaining protein binding sites. The cells were then incubated with WT sPLA2-IIA or mutants for 5 min at room temperature and then incubated with FITC-labeled integrin ligands (γC399tr, FN-H120, FN8-11, and ADAM15) for 15 min at room temperature. For blocking experiments, sPLA-IIA was preincubated with S2-β1 peptide for 30 min at room temperature. The cells were washed with PBS/0.02% BSA and analyzed by FACSCalibur (Becton Dickinson, Mountain View, Calif.). For inhibition studies using Cmpd21, sPLA2-IIA was preincubated with Cmpd21 for 30 minutes at room temperature.

[8] = tested on: integrins αvβ3, α4β1, α5β1; assay: sPLA2-IIA-induced integrin activation (present study overall)
Method: ELISA-type binding assays were performed as described previously (18). Briefly, wells of 96-well Immulon 2 microtiter plates (Dynatech Laboratories, Chantilly, Va.) were coated with 100 μl 0.1 M NaHCO3 containing γC399tr or ADAM15 for 2 h at 37° C. Remaining protein binding sites were blocked by incubating with PBS/0.1% BSA for 30 min at room temperature. After washing with PBS, soluble recombinant αvβ3 (5 μg/ml) in the presence or absence of sPLA2-IIA (WT or mutants) was added to the wells and incubated in HEPES-Tyrodes buffer (10 mM HEPES, 150 mM NaCl, 12 mM NaHCO3, 0.4 mM NaH2PO4, 2.5 mM KCl, 0.1% glucose, 0.1% BSA) with 1 mM CaCl2 for 2 h at room temperature. After unbound αvβ3 was removed by rinsing the wells with binding buffer, bound αvβ3 was measured using anti-integrin β3 mAb (AV-10) followed by HRP-conjugated goat anti-mouse IgG and peroxidase substrates.
The cells were cultured to nearly confluent in RPMI 1640/10% FCS (K562 and U937) or DMEM/10% FCS (CHO cells). The cells were resuspended with RPMI 1640/0.02% BSA or DMEM/0.02% BSA and incubated for 30 min at room temperature to block remaining protein binding sites. […] The cells were washed with PBS/0.02% BSA and analyzed by FACSCalibur (Becton Dickinson, Mountain View, Calif.). […]

[9] = tested on: integrin αvβ3 on U937, αvβ3-K562 and β3-CHO cells; assay: Flow cytometry: binding of FITC-labeled γC399tr to αvβ3 on the cell surface; assay type: cell-based, human
Method: as §1

[10] = tested on: integrin α5β1 on U937, K562 and CHO cells; assay: Flow cytometry: binding of FITC-labeled FN8-11 to α5β1 on the cell surface; assay type: cell-based, human, Chinese hamster; settings: sPLA2-IIA WT or mutants
Method: as §1

[11] = biological target: T5, β1 integrins on U937, K562 and α4-K562 cells (Homo sapiens, UniProt P05556); assay: Reactivity of β1 integrins to activation-dependent antibodies HUTS4 and HUTS21; assay type: cell-based; settings: U937, K562, α4-K562 cells in RPMI1640; preliminary experiments
T5 construct: endogenous in cells; host or cells: U937, K562, α4-K562
T5 sequence (P05556 21-798): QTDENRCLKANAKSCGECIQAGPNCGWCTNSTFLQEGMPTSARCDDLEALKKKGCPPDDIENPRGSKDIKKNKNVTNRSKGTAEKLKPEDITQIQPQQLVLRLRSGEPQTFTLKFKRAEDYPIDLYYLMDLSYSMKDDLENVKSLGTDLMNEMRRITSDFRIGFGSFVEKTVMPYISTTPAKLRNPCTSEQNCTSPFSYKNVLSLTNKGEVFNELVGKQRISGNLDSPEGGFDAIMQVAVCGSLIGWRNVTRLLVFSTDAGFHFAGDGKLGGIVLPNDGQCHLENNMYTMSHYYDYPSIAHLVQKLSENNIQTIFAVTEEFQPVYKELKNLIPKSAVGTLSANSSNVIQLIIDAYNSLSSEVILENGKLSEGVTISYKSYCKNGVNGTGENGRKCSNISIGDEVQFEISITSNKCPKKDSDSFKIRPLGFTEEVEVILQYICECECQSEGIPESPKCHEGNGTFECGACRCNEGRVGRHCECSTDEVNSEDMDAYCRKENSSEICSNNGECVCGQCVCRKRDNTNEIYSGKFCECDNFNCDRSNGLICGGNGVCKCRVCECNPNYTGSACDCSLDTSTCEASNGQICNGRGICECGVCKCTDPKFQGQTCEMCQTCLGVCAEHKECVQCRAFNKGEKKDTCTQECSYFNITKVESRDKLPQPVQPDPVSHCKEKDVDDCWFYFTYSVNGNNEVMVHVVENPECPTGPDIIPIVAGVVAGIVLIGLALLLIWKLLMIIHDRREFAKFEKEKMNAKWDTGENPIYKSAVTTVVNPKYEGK
T5 sequence (P08648 42-894 partner limits assumed): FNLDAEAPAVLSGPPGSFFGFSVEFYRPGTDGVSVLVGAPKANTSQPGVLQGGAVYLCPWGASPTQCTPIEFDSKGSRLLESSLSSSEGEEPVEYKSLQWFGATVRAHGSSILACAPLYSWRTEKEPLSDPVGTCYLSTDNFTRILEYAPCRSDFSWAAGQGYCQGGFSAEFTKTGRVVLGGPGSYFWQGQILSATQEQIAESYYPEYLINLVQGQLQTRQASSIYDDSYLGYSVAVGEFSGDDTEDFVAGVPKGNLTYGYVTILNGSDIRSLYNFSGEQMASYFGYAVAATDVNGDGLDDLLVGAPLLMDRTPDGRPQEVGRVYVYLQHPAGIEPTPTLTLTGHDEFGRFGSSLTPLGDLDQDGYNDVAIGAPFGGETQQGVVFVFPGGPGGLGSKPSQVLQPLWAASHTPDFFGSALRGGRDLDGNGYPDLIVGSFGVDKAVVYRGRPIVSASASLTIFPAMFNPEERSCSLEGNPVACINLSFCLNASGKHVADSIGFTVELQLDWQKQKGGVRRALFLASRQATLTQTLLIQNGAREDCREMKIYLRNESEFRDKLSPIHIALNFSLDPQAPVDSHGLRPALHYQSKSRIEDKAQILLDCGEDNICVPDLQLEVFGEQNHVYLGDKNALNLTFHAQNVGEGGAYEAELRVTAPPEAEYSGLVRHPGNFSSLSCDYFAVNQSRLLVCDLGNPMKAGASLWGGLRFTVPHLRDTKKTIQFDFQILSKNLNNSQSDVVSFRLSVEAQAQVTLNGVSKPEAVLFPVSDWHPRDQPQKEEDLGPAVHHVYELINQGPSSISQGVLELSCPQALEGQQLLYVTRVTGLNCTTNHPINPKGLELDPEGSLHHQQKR
T5 sequence (P08648 895-1049 partner limits assumed): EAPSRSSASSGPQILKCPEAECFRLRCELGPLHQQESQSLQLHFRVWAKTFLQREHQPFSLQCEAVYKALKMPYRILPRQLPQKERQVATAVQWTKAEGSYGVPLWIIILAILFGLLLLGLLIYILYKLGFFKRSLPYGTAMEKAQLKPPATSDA
Excerpt: It is unclear whether sPLA2-IIA-induced integrin activation requires global conformational changes in integrins. In current models of integrin activation, activation of β1 integrins induces a swing-out movement of the hybrid domain and exposes epitopes recognized by activation-dependent antibodies (anti-human β1 HUTS4 and HUTS21)(45). The HUTS4 and HUTS21 epitopes are located in the hybrid domain of […] (46,47). […] It is possible that the binding of sPLA2-IIA to site 2 induces only local conformational changes within the headpiece of integrins. […] It was shown that sPLA2-IIA (the current study) FKN-CD (19) actually bind to site 2 and the binding of sPLA2-IIA and FKN to site 2 is required for integrin activation using the peptides from site 2. It is likely that integrins that are activated by sPLA2-IIA and FKN-CD through site 2 have conformations similar to the open-headpiece αvβ3 that has no global conformational changes compared to the closed-headpiece form. The open- and closed-headpiece conformations of αvβ3 may really reflect the fact that integrins can be activated without global conformational changes through allosteric mechanism.

[12] = tested on: integrin ligands used in this study; assay: ELISA: binding of sPLA2-IIA to the integrin ligands used; settings: ligands coated at 2 μM
Method: FIG. 10. Lack of binding of sPLA2-IIA to integrin ligands used in the present study. Wells of 96-well microtiter plates were coated with ligands (2 μM coating concentration) and the remaining protein-binding sites were blocked with BSA. The wells were then incubated with sPLA2-IIA ([…] in PBS) for 2 hours at room temperature, and bound sPLA2-IIA was determined using HRP-conjugated anti-6His antibody. sPLA2-IIA (20 ng/ml coating concentration, 1% of input sPLA2-IIA) was used as a positive control. Data are shown as means+/−SEM of triplicate experiments.

[13] = tested on: Listera; settings: cited from earlier work
[14] = tested on: integrin α4β1 on U937, α4-K562 and α4-CHO cells; assay: Flow cytometry: binding of FITC-labeled fibronectin H120 fragment to α4β1 on the cell surface; assay type: cell-based, human; settings: for binding of H120 to α4β1 (α4β1 activation): U937, α4-K562, α4-CHO cells, sPLA2-IIA WT or mutants
Method: as §1

## linear β1 peptide: linear peptide comprising SEQ ID NO:1, GST fusion (LPNDGQCHLENNMYTMSHYY; also: GST fusion)
[1]
  binding to other ligands (e.g., SDF-1, IGF-1): did not bind to other ligands

## CCc1c(C(=O)C(N)=O)c2c(OCC(=O)[O-])cccc2n1Cc1ccccc1.[Na+] [S-5920/LY315920Na]
[2]
  therapeutic effect in rheumatoid arthritis and asthma: failed to demonstrate a significant therapeutic effect

## VHDSHYSGQGAMSDNTNSPQT [Compound S2-β3scr, scrambled site 2 peptide, GST fusion protein, control, reference compound]
[3]
  binding of site 2 peptide to immobilized sPLA2-IIA: did not bind to sPLA2-IIA
[4]
  FKN-CD-induced integrin activation: does not

## S2-β1 peptide: site 2 peptide from integrin β1 (β1 275-294, SEQ ID NO:1), made as GST fusion protein (LPNDGQCHLENNMYTMSHYY; also: made as GST fusion protein)
[3]
  binding of site 2 peptide to immobilized sPLA2-IIA: bound better to sPLA2-IIA in a concentration-dependent manner than S2-β3 peptide
[5]
  chemotaxis induced by sPLA2-IIA: suppressed chemotaxis induced by sPLA2-IIA

## QPNDGQSHVGSDNHYSASTTM [S2-β3 peptide, site 2 peptide, residues 267-287 of β3, C273 changed to S, GST fusion protein]
[6]
  binding to FKN-CD: directly binds to FKN-CD
[4]
  FKN-CD-induced integrin activation: suppresses FKN-CD-induced integrin activation

## CCc1c(C(=O)C(N)=O)c2c(OCC(=O)OC)cccc2n1Cc1ccccc1 [S-3013/LY333013]
[2]
  therapeutic effect in rheumatoid arthritis and asthma: failed to demonstrate a significant therapeutic effect

B1: WT sPLA2-IIA: recombinant human secreted phospholipase A2 type IIA, wild type (protein)
chain: T1 sequence (P14555 21-144)
[7]
  binding of FITC-labeled ADAM15 disintegrin domain to αvβ3: markedly enhanced
[8]
  sPLA2-IIA concentration required to detect integrin activation: > 5 µg/mL
[9]
  activation of αvβ3 on the cell surface (FITC-γC399tr binding): activated αvβ3
[10]
  binding of FITC-labeled FN8-11 to α5β1 (α5β1 activation): markedly increased the binding of FITC-labeled FN8-11
[11]
  reactivity of β1 integrins to HUTS4 and HUTS21: did not change reactivity of β1 integrins to HUTS4 and HUTS21
[12]
  direct interaction of sPLA2-IIA with integrin ligands: does not directly interact with the integrin ligands used in this study
[13]
  concentration that kills Listera: < 0.1 nM
[14]
  binding of H120 to α4β1 (α4β1 activation): markedly increased the binding of H120 to α4β1
[14]; α4-CHO cells, sPLA2-IIA up to 500 μg/ml, binding reduced at higher concentrations
  sPLA2-IIA concentration of maximum H120 binding: 20 µg/mL

B2: G29S/D48K: M-type receptor-binding defective mutant of sPLA2-IIA (protein)
chain: T1 sequence (P14555 21-144) with G29S, D48K
modifications: left off: small tags and cut ends
[10]
  binding of FITC-labeled FN8-11 to α5β1 (α5β1 activation): induced α5β1 activation
[14]
  binding of H120 to α4β1 (α4β1 activation): induced α4β1 activation

B3: R74E/R100E: integrin-binding defective mutant of sPLA2-IIA (protein)
chain: T1 sequence (P14555 21-144) with R74E, R100E
modifications: left off: small tags and cut ends
[10]
  binding of FITC-labeled FN8-11 to α5β1 (α5β1 activation): did not
